The assay deals with T1, human GST-VEGF (human, UniProt P15692-9 27-147).
T1 construct: also called GST-VEGF humano; not shown: GST fusion partner
T1 sequence (looked up): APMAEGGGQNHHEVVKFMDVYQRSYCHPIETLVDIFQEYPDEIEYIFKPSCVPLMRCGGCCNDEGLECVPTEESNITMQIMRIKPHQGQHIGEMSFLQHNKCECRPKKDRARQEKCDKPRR
Briefly: competition ELISA on coated GST-VEGF; soluble scFv 2H1 titrated; competitor phage scFv 3F3. In general terms: An ELISA detects its analyte on a solid surface through an enzyme-linked reagent.

The term IC50 denotes the point on the concentration scale where inhibition reaches its midpoint. Low values mean greater potency in that assay, high ones weaker potency in that assay.

B1: soluble scFv 2H1 antibody fragment (scFv, from another filing)
scFv: QQVQLVQSGAEVKKPGESLKISCKGSGYSFTSYWIGWVRQMPGKGLEWMGIIYPGDSDTRYSPSFQGQVTISADKSISTAYLQWSSLKASDTAMYYCARLVVRDTEIWGQGTMVTVSSAPQAKSSGSGSESKVDQAVVTQEPSLTVSPGGTVTLTCASSIGAVTSGNYPNWFQQRPGQPPRALIYSTSNKHSWTPARFSGSLLGGKAALTLSGAQPEDEAEYYCLLSYSGARPVFGGGTKLTVLGAAAGSEQKLISEEDLNSHHHHHH
The molecule B1 returned a half-inhibitory concentration (IC50) of 49.7 µg/mL.

Source of the values: US20140086829A1 (BIOREC S A, published 2014).
